Where a chain is given by its changes, count along the chain named.
What was measured:
[1] = system: Fen1 (flap endonuclease 1) (Sulfolobus solfataricus); assay: smFRET; conditions: 10 mM Ca2+, no PCNA; 10 mM Ca2+ (prevents cleavage), 20 C / room temperature; binding buffer, salt and pH not in held text (hybridization buffer 20 mM Tris-HCl pH 7.8, 25 mM NaCl)
[2] = system: Fen1 (flap endonuclease 1);PCNA heterotrimer (PCNA1/PCNA2/PCNA3) (Sulfolobus solfataricus;Sulfolobus solfataricus); assay: smFRET; conditions: Fen1 titrated with 2 uM PCNA, 10 mM Ca2+; 10 mM Ca2+ (prevents cleavage), 20 C / room temperature; binding buffer, salt and pH not in held text (hybridization buffer 20 mM Tris-HCl pH 7.8, 25 mM NaCl)
[3] = system: Fen1 (flap endonuclease 1);PCNA heterotrimer (PCNA1/PCNA2/PCNA3) (Sulfolobus solfataricus;Sulfolobus solfataricus); assay: PIFE (Cy3); conditions: PCNA titrated with 5 uM Fen1, 10 mM Ca2+; 10 mM Ca2+ (prevents cleavage), 20 C / room temperature; binding buffer, salt and pH not in held text (hybridization buffer 20 mM Tris-HCl pH 7.8, 25 mM NaCl)
[4] = system: Fen1 (flap endonuclease 1);PCNA12 heterodimer (PCNA1/PCNA2) (Sulfolobus solfataricus;Sulfolobus solfataricus); assay: PIFE (Cy3); conditions: PCNA12 titrated with 5 uM Fen1, 10 mM Ca2+; 10 mM Ca2+ (prevents cleavage), 20 C / room temperature; binding buffer, salt and pH not in held text (hybridization buffer 20 mM Tris-HCl pH 7.8, 25 mM NaCl)
[5] = system: Fen1 (flap endonuclease 1);PCNA-Cy5 heterotrimer (Sulfolobus solfataricus;Sulfolobus solfataricus); assay: intermolecular FRET; conditions: PCNA-Cy5 titrated with 5 uM Fen1; substrate of the Kd fit not explicitly stated; 10 mM Ca2+ (prevents cleavage), 20 C / room temperature; binding buffer, salt and pH not in held text (hybridization buffer 20 mM Tris-HCl pH 7.8, 25 mM NaCl)
[6] = biological target: Fen1 (Saccharolobus solfataricus) (UniProt Q980U8); conditions: cited from earlier work
[7] = system: Fen1 (flap endonuclease 1) (Sulfolobus solfataricus); assay: ensemble FRET; conditions: 10 mM Ca2+, no PCNA, 20 C; 10 mM Ca2+ (prevents cleavage), 20 C / room temperature; binding buffer, salt and pH not in held text (hybridization buffer 20 mM Tris-HCl pH 7.8, 25 mM NaCl)
[8] = system: Fen1 (flap endonuclease 1);PCNA heterotrimer (PCNA1/PCNA2/PCNA3) (Sulfolobus solfataricus;Sulfolobus solfataricus); assay: ensemble FRET; conditions: Fen1 titrated with 2 uM PCNA, 10 mM Ca2+, 20 C; 10 mM Ca2+ (prevents cleavage), 20 C / room temperature; binding buffer, salt and pH not in held text (hybridization buffer 20 mM Tris-HCl pH 7.8, 25 mM NaCl)
[9] = system: Fen1 (flap endonuclease 1) (Sulfolobus solfataricus); assay: FRET titration; conditions: 10 mM Ca2+, no PCNA; 10 mM Ca2+ (prevents cleavage), 20 C / room temperature; binding buffer, salt and pH not in held text (hybridization buffer 20 mM Tris-HCl pH 7.8, 25 mM NaCl)
[10] = system: Fen1 (flap endonuclease 1);PCNA heterotrimer (PCNA1/PCNA2/PCNA3) (Sulfolobus solfataricus;Sulfolobus solfataricus); assay: FRET titration; conditions: Fen1 titrated with 2 uM PCNA, 10 mM Ca2+; 10 mM Ca2+ (prevents cleavage), 20 C / room temperature; binding buffer, salt and pH not in held text (hybridization buffer 20 mM Tris-HCl pH 7.8, 25 mM NaCl)
[11] = biological target: T1, Cy5 acceptor-labelled Sulfolobus solfataricus PCNA heterotrimer (PCNA1 N131C-Cy5, PCNA2, PCNA3) (Sulfolobus solfataricus, UniProt P57766 1-249; Q97Z84 1-245; P57765 1-244, N131C, Cy5-maleimide on the single cysteine of N131C); assay: FRET or BRET; ensemble inter-molecular FRET between Cy3-labelled double-flap DNA and Cy5-labelled PCNA; PCNA-Cy5 titrated, DNA pre-equilibrated with 5 uM Fen1; conditions: both partners purified
T1 construct: PCNA1 subunit, Sulfolobus solfataricus, with the point mutation N131C; PCNA2 subunit, Sulfolobus solfataricus, unlabelled; PCNA3 subunit, Sulfolobus solfataricus, unlabelled; Labelling yield about 80%; also called PCNA-Cy5; acceptor-labelled PCNA; copies: + +
T1 sequence (looked up) 1: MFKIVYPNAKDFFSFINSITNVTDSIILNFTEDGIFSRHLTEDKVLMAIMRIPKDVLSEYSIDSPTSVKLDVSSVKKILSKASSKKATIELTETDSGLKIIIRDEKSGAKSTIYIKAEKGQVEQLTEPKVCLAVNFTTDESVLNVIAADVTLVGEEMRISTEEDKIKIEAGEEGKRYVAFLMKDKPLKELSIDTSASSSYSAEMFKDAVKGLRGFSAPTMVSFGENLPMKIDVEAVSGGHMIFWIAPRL
T1 sequence (looked up) 2: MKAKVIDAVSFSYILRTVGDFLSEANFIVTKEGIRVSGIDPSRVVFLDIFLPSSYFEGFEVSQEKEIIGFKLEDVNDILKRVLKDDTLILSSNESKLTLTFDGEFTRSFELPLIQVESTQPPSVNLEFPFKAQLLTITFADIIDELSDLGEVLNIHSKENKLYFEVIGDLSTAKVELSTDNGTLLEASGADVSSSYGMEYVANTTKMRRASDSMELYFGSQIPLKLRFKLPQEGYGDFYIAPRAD
T1 sequence (looked up) 3: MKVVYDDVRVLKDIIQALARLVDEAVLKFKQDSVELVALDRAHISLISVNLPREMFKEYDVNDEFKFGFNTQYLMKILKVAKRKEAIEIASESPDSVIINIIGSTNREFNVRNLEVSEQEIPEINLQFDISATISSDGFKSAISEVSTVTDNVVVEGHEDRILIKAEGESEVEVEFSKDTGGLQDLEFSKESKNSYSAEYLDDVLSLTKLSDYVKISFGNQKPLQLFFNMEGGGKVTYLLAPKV

[12] = biological target: T2, Sulfolobus solfataricus PCNA heterotrimer (PCNA1, PCNA2, PCNA3) (Sulfolobus solfataricus, UniProt P57766 1-249; Q97Z84 1-245; P57765 1-244); assay: other fluorescence titration; protein-induced fluorescence enhancement (PIFE) of Cy3 on the 3F-duplex of a double-flap DNA; PCNA or PCNA12 titrated into DNA pre-incubated with 5 uM Fen1, 10 mM Ca2+; 30 mM HEPES pH 7.6, 40 mM KCl, 5% glycerol, 0.1 mg/ml BSA, 20 C; conditions: both partners purified
T2 construct: PCNA1 subunit of the heterotrimeric PCNA, Sulfolobus solfataricus; PCNA2 subunit of the heterotrimeric PCNA, Sulfolobus solfataricus; PCNA3 subunit of the heterotrimeric PCNA, Sulfolobus solfataricus; also called heterotrimeric PCNA; sliding clamp; copies: + +
T2 sequence (looked up) 1: T1 sequence (looked up) 1 with C131N
T2 sequence (looked up) 2: T1 sequence (looked up) 2
T2 sequence (looked up) 3: T1 sequence (looked up) 3

[13] = biological target: T3, Sulfolobus solfataricus PCNA1-PCNA2 heterodimer (PCNA12) (Sulfolobus solfataricus, UniProt P57766 1-249; Q97Z84 1-245); assay: as above; conditions: both partners purified
T3 construct: PCNA1 subunit, Sulfolobus solfataricus; PCNA2 subunit, Sulfolobus solfataricus; also called PCNA12 complex
T3 sequence (looked up) 1: T1 sequence (looked up) 1 with C131N
T3 sequence (looked up) 2: T1 sequence (looked up) 2

Molecule “Flap-23 double flap, single-molecule, Cy3/Cy5, biotin” has a Kd [1] of 23 nM and a Kd [2] of 1.6 nM.

Molecule Double flap, Cy3 in 3F-duplex has a Kd [3] of 160 nM, a Kd [4] of 360 nM and a Kd [5] of 117 nM.

For PCNA (from UniProt P57766), the Kd [6] is listed as 210 nM.

Work on “Flap-12/23/13 double flap (global fit of three labelled versions)” yielded a Kd [7] of 14 nM and a Kd [8] of 3 nM.

Molecule “5'-flap substrate lacking the 3' extrahelical nucleotide” has a Kd [9] greater than 10000 nM and a Kd [10] of 700 nM.

B1: Sulfolobus solfataricus Flap endonuclease 1 (Fen1) (enzyme, UniProt Q980U8 1-349, looked up)
chain: MDLADLVKDVKRELSFSELKGKRVSIDGYNALYQFLAAIRQPDGTPLMDSQGRVTSHLSGLFYRTINILEEGVIPIYVFDGKPPEQKSEELERRRKAKEEAERKLERAKSEGKIEELRKYSQAILRLSNIMVEESKKLLRAMGIPIVQAPSEGEAEAAYLNKLGLSWAAASQDYDAILFGAKRLVRNLTITGKRKLPNKDVYVEIKPELIETEILLKKLGITREQLIDIGILIGTDYNPDGIRGIGPERALKIIKKYGKIEKAMEYGEISKKDINFNIDEIRGLFLNPQVVKPEEALDLNEPNGEDIINILVYEHNFSEERVKNGIERLTKAIKEAKGASRQTGLDRWF
notes: Flap endonuclease 1 (Fen1), Sulfolobus solfataricus
B1 gave a Kd [11] of 117 ± 34 nM, a Kd [12] of 160 ± 14 nM and a Kd [13] of 360 ± 30 nM.
